No end group written: not given here.
How the values were obtained:
Test in all cases: pull-down from MDA-MB-231 cell lysate with CT20p-biotin and streptavidin-agarose beads, excised gel band, mass spectrometry
[1] = biological target: Cellular tumor antigen p53 (human) (UniProt P04637)
[2] = biological target: T-complex protein 1 subunit delta (human) (UniProt P50991)
[3] = biological target: Signal transducer and activator of transcription 3 (human) (UniProt P40763)
[4] = biological target: T-complex protein 1 subunit zeta (human) (UniProt P40227)
[5] = biological target: T-complex protein 1 subunit epsilon (human) (UniProt P48643)
[6] = biological target: Hsp90 co-chaperone Cdc37 (human) (UniProt Q16543)
UniProt Q16543, sequence (Q16543 whole entry): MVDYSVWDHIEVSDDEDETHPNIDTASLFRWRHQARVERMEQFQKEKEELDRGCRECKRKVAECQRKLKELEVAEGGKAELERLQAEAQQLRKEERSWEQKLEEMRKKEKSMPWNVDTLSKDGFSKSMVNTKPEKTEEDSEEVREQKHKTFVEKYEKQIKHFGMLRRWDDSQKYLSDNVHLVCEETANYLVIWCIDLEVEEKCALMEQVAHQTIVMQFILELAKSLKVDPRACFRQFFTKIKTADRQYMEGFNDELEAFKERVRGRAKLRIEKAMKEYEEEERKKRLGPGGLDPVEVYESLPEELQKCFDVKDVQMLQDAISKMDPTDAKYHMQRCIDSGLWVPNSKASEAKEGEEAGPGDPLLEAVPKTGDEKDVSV

[7] = biological target: T-complex protein 1 subunit gamma (human) (UniProt P49368)
UniProt P49368, sequence (P49368 whole entry, one chain of several): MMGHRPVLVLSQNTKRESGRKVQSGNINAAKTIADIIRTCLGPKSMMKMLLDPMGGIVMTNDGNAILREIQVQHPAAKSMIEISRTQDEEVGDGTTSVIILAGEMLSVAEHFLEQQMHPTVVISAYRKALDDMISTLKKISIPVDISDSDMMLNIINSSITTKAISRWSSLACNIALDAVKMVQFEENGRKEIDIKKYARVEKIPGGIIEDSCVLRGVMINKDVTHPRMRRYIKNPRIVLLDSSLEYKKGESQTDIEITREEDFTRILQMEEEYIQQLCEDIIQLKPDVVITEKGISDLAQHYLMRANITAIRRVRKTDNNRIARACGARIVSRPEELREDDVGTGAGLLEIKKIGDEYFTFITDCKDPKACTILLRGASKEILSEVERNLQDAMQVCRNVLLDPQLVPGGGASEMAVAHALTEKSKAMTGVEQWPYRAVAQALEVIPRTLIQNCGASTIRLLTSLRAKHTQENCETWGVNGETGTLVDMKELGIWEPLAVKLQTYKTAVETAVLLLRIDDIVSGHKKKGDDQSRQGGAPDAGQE

Huntingtin (human) = Huntingtin (human) (UniProt P42858)
[8] = biological target: Coatomer subunit beta (human) (UniProt P35606)
UniProt P35606, sequence (P35606 2-906 limits assumed): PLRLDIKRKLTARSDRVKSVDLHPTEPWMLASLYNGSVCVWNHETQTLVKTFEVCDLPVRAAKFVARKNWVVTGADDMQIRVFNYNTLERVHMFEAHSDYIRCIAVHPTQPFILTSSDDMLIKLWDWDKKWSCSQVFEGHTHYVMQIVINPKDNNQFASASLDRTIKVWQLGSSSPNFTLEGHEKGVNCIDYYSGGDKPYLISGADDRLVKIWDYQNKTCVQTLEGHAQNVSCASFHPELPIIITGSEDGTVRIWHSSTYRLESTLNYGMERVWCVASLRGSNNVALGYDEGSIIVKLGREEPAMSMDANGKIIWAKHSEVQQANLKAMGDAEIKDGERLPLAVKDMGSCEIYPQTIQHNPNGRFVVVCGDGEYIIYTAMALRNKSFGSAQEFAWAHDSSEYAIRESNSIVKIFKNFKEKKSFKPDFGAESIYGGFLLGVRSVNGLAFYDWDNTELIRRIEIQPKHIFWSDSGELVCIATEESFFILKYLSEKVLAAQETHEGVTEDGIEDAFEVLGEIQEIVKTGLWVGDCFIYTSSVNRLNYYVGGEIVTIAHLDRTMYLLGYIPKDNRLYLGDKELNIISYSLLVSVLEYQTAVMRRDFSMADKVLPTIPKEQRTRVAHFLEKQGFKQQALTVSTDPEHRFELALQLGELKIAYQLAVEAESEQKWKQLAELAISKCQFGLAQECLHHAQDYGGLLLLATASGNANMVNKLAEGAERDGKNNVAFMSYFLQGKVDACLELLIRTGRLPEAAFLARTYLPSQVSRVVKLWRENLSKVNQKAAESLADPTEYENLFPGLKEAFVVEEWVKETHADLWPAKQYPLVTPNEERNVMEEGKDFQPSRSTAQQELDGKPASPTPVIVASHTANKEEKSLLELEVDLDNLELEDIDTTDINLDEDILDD

[9] = biological target: Coatomer subunit gamma-1 (human) (UniProt Q9Y678)
UniProt Q9Y678, sequence (Q9Y678 whole entry): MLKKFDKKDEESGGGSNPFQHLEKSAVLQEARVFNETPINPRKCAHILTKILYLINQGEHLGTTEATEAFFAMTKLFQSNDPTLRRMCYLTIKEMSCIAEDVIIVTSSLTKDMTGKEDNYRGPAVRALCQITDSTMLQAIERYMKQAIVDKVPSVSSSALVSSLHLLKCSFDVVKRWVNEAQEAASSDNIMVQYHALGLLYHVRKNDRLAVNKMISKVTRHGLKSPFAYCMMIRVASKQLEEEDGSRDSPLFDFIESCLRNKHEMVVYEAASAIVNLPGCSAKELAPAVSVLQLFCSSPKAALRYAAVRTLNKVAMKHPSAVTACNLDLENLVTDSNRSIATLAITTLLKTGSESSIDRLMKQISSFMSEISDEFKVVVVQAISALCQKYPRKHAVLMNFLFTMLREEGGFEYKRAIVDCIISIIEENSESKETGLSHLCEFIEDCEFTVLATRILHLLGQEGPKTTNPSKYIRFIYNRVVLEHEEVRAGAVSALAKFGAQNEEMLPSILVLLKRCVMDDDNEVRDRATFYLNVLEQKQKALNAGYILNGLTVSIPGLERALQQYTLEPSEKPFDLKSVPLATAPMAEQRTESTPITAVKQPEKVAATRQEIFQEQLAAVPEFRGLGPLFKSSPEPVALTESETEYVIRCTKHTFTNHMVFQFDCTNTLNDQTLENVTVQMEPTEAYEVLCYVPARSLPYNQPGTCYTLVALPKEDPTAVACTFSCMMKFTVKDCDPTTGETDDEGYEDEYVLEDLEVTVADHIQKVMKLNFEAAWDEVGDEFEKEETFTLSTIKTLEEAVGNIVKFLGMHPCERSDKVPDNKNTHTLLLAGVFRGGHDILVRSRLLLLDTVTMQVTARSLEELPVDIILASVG

[10] = biological target: Signal transducer and activator of transcription 1-alpha/beta (human) (UniProt P42224)
UniProt P42224, sequence (P42224 2-750 limits assumed): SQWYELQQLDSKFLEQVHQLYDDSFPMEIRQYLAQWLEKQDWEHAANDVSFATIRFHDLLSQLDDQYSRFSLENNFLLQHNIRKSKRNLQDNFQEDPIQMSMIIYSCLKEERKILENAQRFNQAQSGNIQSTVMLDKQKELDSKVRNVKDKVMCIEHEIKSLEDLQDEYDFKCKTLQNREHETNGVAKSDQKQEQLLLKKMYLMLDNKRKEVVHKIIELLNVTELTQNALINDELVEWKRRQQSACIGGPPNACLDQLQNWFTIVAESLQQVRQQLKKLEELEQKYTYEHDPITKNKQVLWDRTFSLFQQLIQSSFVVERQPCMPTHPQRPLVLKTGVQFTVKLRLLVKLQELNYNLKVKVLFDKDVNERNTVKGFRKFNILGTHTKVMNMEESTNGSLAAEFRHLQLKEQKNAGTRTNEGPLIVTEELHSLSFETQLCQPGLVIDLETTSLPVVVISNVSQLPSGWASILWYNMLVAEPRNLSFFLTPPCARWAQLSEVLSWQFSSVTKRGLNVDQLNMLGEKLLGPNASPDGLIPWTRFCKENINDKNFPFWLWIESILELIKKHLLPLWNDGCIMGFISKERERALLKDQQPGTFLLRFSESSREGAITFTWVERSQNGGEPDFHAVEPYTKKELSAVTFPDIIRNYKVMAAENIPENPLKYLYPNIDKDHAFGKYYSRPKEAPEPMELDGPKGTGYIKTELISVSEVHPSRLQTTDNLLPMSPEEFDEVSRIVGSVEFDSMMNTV

Reticulocalbin-2 (human) = Reticulocalbin-2 (human) (UniProt Q14257)
UniProt Q14257, sequence (Q14257 23-317 limits assumed): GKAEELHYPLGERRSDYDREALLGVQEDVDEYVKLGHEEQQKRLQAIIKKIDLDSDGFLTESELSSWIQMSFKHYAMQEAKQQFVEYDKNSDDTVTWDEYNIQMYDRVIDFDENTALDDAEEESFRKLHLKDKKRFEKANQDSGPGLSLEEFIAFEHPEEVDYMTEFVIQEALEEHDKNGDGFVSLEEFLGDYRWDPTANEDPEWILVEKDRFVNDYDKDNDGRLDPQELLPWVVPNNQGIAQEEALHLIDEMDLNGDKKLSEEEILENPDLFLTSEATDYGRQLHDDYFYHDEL

[11] = biological target: T-complex protein 1 subunit alpha (human) (UniProt P17987)
[12] = biological target: T-complex protein 1 subunit eta (human) (UniProt Q99832)

UniProt P40763, sequence (P40763 2-770 limits assumed): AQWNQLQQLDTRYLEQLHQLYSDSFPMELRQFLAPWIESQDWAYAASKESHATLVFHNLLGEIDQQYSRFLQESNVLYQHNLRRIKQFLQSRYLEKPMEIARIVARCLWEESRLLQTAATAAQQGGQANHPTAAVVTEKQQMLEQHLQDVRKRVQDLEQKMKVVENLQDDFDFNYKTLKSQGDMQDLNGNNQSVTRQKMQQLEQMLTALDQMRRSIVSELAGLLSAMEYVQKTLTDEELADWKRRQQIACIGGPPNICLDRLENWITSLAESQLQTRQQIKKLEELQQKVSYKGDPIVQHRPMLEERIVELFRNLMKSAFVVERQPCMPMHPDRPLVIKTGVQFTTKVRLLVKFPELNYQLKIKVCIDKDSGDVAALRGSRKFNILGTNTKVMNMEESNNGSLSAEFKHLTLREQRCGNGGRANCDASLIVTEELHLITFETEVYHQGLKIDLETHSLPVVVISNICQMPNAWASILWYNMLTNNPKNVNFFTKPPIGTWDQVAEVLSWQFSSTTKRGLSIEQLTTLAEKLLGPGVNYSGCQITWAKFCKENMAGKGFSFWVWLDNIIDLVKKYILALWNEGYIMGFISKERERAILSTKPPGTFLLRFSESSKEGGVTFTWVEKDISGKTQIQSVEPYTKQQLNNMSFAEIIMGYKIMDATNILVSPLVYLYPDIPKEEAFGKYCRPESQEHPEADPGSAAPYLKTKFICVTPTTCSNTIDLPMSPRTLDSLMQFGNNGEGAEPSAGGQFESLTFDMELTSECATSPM
UniProt P04637, sequence (P04637 whole entry): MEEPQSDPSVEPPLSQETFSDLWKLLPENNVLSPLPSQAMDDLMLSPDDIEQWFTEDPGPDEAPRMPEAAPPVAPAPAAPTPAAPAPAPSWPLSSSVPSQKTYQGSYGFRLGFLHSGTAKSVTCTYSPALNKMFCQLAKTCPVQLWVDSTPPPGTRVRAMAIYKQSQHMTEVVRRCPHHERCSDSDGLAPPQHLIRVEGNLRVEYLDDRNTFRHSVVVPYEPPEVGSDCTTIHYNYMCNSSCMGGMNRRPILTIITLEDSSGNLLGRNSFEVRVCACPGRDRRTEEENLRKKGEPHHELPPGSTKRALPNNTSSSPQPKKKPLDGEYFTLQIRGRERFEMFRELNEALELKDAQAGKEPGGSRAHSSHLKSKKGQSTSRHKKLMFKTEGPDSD

No. of unique peptides [1]: 1 peptides | No. of unique peptides [2]: 4 peptides | No. of unique peptides [3]: 2 peptides | No. of unique peptides [4]: 2 peptides | No. of unique peptides [5]: 2 peptides | No. of unique peptides [6]: 2 peptides | No. of unique peptides [7]: 3 peptides | No. of unique peptides (Huntingtin (human)): 1 peptides | No. of unique peptides [8]: 6 peptides | No. of unique peptides [9]: 6 peptides | No. of unique peptides [10]: 7 peptides | No. of unique peptides (Reticulocalbin-2 (human)): 10 peptides | No. of unique peptides [11]: 2 peptides | No. of unique peptides [12]: 3 peptides
Binder: VTIFVAGVLTASLTIWKKMG (also: biotin tag, site not given here) [biotin-tagged CT20p]

Source: US20230035748A1
